This is an account of results in publication PMC6123813 (Communications biology, 2018).

The target of data set [1] is m-ephrinA1 (Homo sapiens) (UniProt P20827). The note with it: cited from earlier work.
In data set [2] the target is YSA peptide (synthetic construct). The settings on record: cited from earlier work.
Data set [3] concerns the molecule itself. The data set can be described thus: FRET or BRET; FSI-FRET (two-photon spectral imaging) between EphA2-mTurq and EphA2-eYFP in the plasma membrane of live HEK293T cells in hypo-osmotic medium; no ligand; dimer to monomers, two-dimensional constants in receptors per μm^2. Background: BRET reads energy transfer from a luciferase to a nearby fluorophore.

Chain of m-ephrinA1 (Homo sapiens) (P20827 19-182): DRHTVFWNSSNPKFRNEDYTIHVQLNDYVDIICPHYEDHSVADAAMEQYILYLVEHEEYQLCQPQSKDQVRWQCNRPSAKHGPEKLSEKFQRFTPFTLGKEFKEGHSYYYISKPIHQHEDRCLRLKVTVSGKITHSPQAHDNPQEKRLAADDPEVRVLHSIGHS

For EphA2 (from UniProt P29317), the equilibrium dissociation constant (Kd) (in general, a measure of binding affinity in units of concentration) in data set [1] was 25 nM; in data set [2], 200 nM.

B1: EphA2 L223R/L254R/V255R triple mutant, full-length, tagged at the C-terminus with mTurquoise or eYFP (receptor, UniProt P29317 24-976, looked up)
chain: AQGKEVVLLDFAAAGGELGWLTHPYGKGWDLMQNIMNDMPIYMYSVCNVMSGDQDNWLRTNWVYRGEAERIFIELKFTVRDCNSFPGGASSCKETFNLYYAESDLDYGTNFQKRLFTKIDTIAPDEITVSSDFEARHVKLNVEERSVGPLTRKGFYLAFQDIGACVALLSVRVYYKKCPELLQGLAHFPETIAGSDAPSRATVAGTCVDHAVVPPGGEEPRMHCAVDGEWRRPIGQCLCQAGYEKVEDACQACSPGFFKFEASESPCLECPEHTLPSPEGATSCECEEGFFRAPQDPASMPCTRPPSAPHYLTAVGMGAKVELRWTPPQDSGGREDIVYSVTCEQCWPESGECGPCEASVRYSEPPHGLTRTSVTVSDLEPHMNYTFTVEARNGVSGLVTSRSFRTASVSINQTEPPKVRLEGRSTTSLSVSWSIPPPQQSRVWKYEVTYRKKGDSNSYNVRRTEGFSVTLDDLAPDTTYLVQVQALTQEGQGAGSKVHEFQTLSPEGSGNLAVIGGVAVGVVLLLVLAGVGFFIHRRRKNQRARQSPEDVYFSKSEQLKPLKTYVDPHTYEDPNQAVLKFTTEIHPSCVTRQKVIGAGEFGEVYKGMLKTSSGKKEVPVAIKTLKAGYTEKQRVDFLGEAGIMGQFSHHNIIRLEGVISKYKPMMIITEYMENGALDKFLREKDGEFSVLQLVGMLRGIAAGMKYLANMNYVHRDLAARNILVNSNLVCKVSDFGLSRVLEDDPEATYTTSGGKIPIRWTAPEAISYRKFTSASDVWSFGIVMWEVMTYGERPYWELSNHEVMKAINDGFRLPTPMDCPSAIYQLMMQCWQQERARRPKFADIVSILDKLIRAPDSLKTLADFDPRVSIRLPSTSGSEGVPFRTVSEWLESIKMQQYTEHFMAAGYTAIEKVVQMTNDDIKRIGVRLPGHQKRIAYSLLGLKDQVNTVGIPI
For the molecule B1, the stoichiometry N (in general, a count of units in the complex or per binding partner) in data set [3] is 2.
